Laboratory results reported in patent US11780903B2, “Peptide suppressing binding of CTLA4 to B7 proteins, and use thereof” (TOAGOSEI CO., LTD., priority 2020, dated 2023).
No end group written: not given here.

Tests used:
binding of CTLA4 to B7-1 = target: T1, binding of CTLA4 to B7-1 (Homo sapiens, UniProt P16410); assay: Test for evaluating binding inhibitory properties between CTLA4 and B7-1 (BPS #72009 inhibitor screening assay kit, chemiluminescence); details: peptide concentration 5 μM and/or 10 μM as in Table 2; plate-coated CTLA4, biotin-labeled B7-1; n=2 wells; versus no peptide added
T1 construct: purchased BPS Bioscience BPS #72009
T1 sequence (P16410 36-161 limits assumed): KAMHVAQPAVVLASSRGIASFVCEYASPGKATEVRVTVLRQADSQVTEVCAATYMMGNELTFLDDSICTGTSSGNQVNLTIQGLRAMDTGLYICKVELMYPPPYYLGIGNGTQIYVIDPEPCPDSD
Description: The binding inhibitory properties between CTLA4 and B7-1 were evaluated for the 6 kinds of sample peptides synthesized in the above-described Test Example 1.
In this test, Test Examples 2-1 to 2-9 were set according to the kinds of sample peptide used and the peptide concentration as shown in Table 2 below. In addition, a peptide-free group was set as Test Example 2-10. The tests of the above-described 10 categories in total were carried out as follows. The numbers “1 to 10” shown in the “No.” column of Table 2 represent “Test Examples 2-1 to 2-10” in Test Example 2. In addition, the number (n) of test wells in each of the above-described examples was set to 2.
In Test Example 2-1, the following kit currently available on the market was used. CTLA4 B7-1 (Biotinylated) inhibitor screening assay kit (manufactured by BPS Bioscience, BPS #72009)
The operation for this test example was based on “ASSAY PROTOCOL” described in the data sheet of the above-described kit. A brief procedure is shown below.
First, each well of a 96-well plate was coated with CTLA4. Specifically, a CTLA4 solution (2 μg/mL) was dispensed into each well of the 96-well plate, and the plate was incubated overnight at 4° C.
Subsequently, the CTLA4 solution was removed, and each well was washed.
Subsequently, blocking was performed. Specifically, a blocking buffer contained in the kit was dispensed into each well, and the plate was incubated for 1 hour at room temperature.
Subsequently, a solution of the Sample 1 was dispensed into each well, and the plate was incubated for 1 hour at room temperature.
Subsequently, a biotin-labeled B7-1 solution (1.25 ng/mL) was dispensed into each well of the 96-well plate, and the plate was incubated for 2 hours at room temperature.
After the above-described incubation, the peptide solution was removed, and each well was washed. […]
Subsequently, the blocking buffer was removed, a chemiluminescent reagent contained in the above-described kit was dispensed into each well, and the chemiluminescence intensity in each well was measured with a luminometer. […]

binding of CTLA4 to B7-2 = target: T2, binding of CTLA4 to B7-2 (Homo sapiens, UniProt P16410); assay: Test for evaluating binding inhibitory properties between CTLA4 and B7-2 (BPS #79658 inhibitor screening assay kit, chemiluminescence); details: peptide concentration 5 μM and/or 10 μM as in Table 2; plate-coated CTLA4, biotin-labeled B7-2; n=2 wells; versus no peptide added
T2 construct: purchased BPS Bioscience BPS #79658
T2 sequence (P16410 36-161 limits assumed): T1 sequence (P16410 36-161 limits assumed)
Description: The binding inhibitory properties between CTLA4 and B7-2 were evaluated for the 6 kinds of sample peptides synthesized in the above-described Test Example 1.
In this test, Test Examples 3-1 to 3-9 were set according to the kind of sample peptide used and the peptide concentration as shown in Table 2 mentioned above. In addition, a peptide-free group was set as Test Example 3-10. The tests of the above-described 10 categories in total were carried out as follows. The numbers “1 to 10” shown in the “No.” column of Table 2 represent “Test Examples 3-1 to 3-10” in Test Example 3. In addition, the number (n) of test wells in each of the above-described examples was set to 2.
In Test Example 3-1, the following kit currently available on the market was used. CTLA4 B7-2 (Biotinylated) inhibitor screening assay kit (BPS #79658)
The operation for this test example was based on “ASSAY PROTOCOL” described in the data sheet of the above-described kit.
Test Example 3-1 was performed using the same materials and processes as those of Test Example 2-1 except that the above-described kit was used.

| Sequence | suppression of binding of CTLA4 to B7-1 (chemiluminescence intensity, FIG. 1) (binding of CTLA4 to B7-1) | suppression of binding of CTLA4 to B7-2 (chemiluminescence intensity, FIG. 2) (binding of CTLA4 to B7-2) |
| --- | --- | --- |
| MQIPQAPWPVVWAVLQLGWR (MQIPQAPWPVVWAVLQLGWR-NH2) [Sample 4] | no action of suppressing the binding of CTLA4 to B7-1 was observed | – |
| KKRTLRKNDR KKR (KKRTLRKNDRKKR-NH2) [Sample 6] | not suppressed | not suppressed |
| MQIPQAPWPVVWAVLQLGWRMQIPQAPWRPVVWAVLQLGW [Sample 5] | no action of suppressing the binding of CTLA4 to B7-1 was observed | – |
